Nine substances from the supplement of paper PMC5998384 can be followed below.

Series [1] relates to HeLa Kyoto. The experiment in a line: thermal stability score vs G1/S (z-score of summed log2 fold changes over temperatures); higher = more thermally stable than in G1/S.
In series [2] the test system is HeLa Kyoto. The experiment in a line: melting temperature (median over replicates), in situ; higher = more thermally stable. To be noted: cell cycle stage: mitosis.
[3] abbreviates: cell cycle stage: early G1 (4.5 h after nocodazole release).
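Wherever melting temperature (median over replicates), in situ is given: HeLa Kyoto cells synchronized by double thymidine or nocodazole block, proteins quantified by TMT10plex mass spectrometry, three independent biological replicates.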
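Wherever thermal stability score vs G1/S (z-score of summed log2 fold changes over temperatures) is given: synchronized HeLa Kyoto cells, proteins quantified by TMT10plex mass spectrometry, three biological replicates, mitosis taken 0.5 h after nocodazole release, G1/S directly after double thymidine block.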

For “MKSLVLLLCLAQLWGCHSAPHGPGLIYRQPNCDDPETEEAALVAIDYINQNLPWGYKHTLNQIDEVKVWPQQPSGELFEIEIDTLETTCHVLDPTPVARCSVRQLKEHAVEGDCDFQLLKLDGKFSVVYAKCDSSPDSAEDVRKVCQDCPLLAPLNDTRVVHAAKAALAAFNAQNNGSNFQLEEISRAQLVPLPPSTYVEFTVSGTDCVAKEATEAAKCNLLAEKQYGFCKATLSEKLGGAEVAVTCMVFQTQPVSSQPQPEGANEAVPTPVVDPDAPPSPPLGAPGLPPAGSPPDSHVLLAAPPGHQLHRAHYDLRHTFMGVVSLGSPSGEVSHPRKTRTVVQPSVGAAAGPVVPPCPGRIRHFKV [AHSG]”, the thermal stability score was -0.0372 with HeLa Kyoto [1] (setting [3]) and -0.632 in the series with HeLa Kyoto [1] (cell cycle stage: mitosis).

Take KIAA0100: the thermal stability score in the series with HeLa Kyoto [1] (setting [3]) worked out at 1.31; with HeLa Kyoto [1] (cell cycle stage: mitosis), 1.36. For “MGAALGTGTRLAPWPGRACGALPRWTPTAPAQGCHSKPGPARPVPLKKRGYDVTRNPHLNKGMAFTLEERLQLGIHGLIPPCFLSQDVQLLRIMRYYERQQSDLDKYIILMTLQDRNEKLFYRVLTSDVEKFMPIVYTPTVGLACQHYGLTFRRPRGLFITIHDKGHLATMLNSWPEDNIKAVVVTDGERILGLGDLGCYGMGIPVGKLALYTACGGVNPQQCLPVLLDVGTNNEELLRDPLYIGLKHQRVHGKAYDDLLDEFMQAVTDKFGINCLIQFEDFANANAFRLLNKYRNKYCMFNDDIQGTASVAVAGILAALRITKNKLSNHVFVFQGAGEAAMGIAHLLVMALEKEGVPKAEATRKIWMVDSKGLIVKGRSHLNHEKEMFAQDHPEVNSLEEVVRLVKPTAIIGVAAIAGAFTEQILRDMASFHERPIIFALSNPTSKAECTAEKCYRVTEGRGIFASGSPFKSVTLEDGKTFIPGQGNNAYVFPGVALGVIAGGIRHIPDEIFLLTAEQIAQEVSEQHLSQGRLYPPLSTIRDVSLRIAIKVLDYAYKHNLASYYPEPKDKEAFVRSLVYTPDYDSFTLDSYTWPKEAMNVQTV [ME3]”, the thermal stability score with HeLa Kyoto [1] (setting [3]) was -5.4; in the series on HeLa Kyoto [1] (cell cycle stage: mitosis), -4.14.

Take “MNCRSEVLEVSVEGRQVEEAMLAVLHTVLLHRSTGKFHYKKEGTYSIGTVGTQDVDCDFIDFTYVRVSSEELDRALRKVVGEFKDALRNSGGDGLGQMSLEFYQKKKSRWPFSDECIPWEVWTVKVHVVALATEQERQICREKVGEKLCEKIINIVEVMNRHEYLPKMPTQSEVDNVFDTGLRDVQPYLYKISFQITDALGTSVTTTMRRLIKDTLAL [ATG101]”: the thermal stability score was 0.111 in the series on HeLa Kyoto [1] (setting [3]) and 1.17 in the series with HeLa Kyoto [1] (cell cycle stage: mitosis).

Turning to “MSGGDTRAAIARPRMAAAHGPVAPSSPEQVTLLPVQRSFFLPPFSGATPSTSLAESVLKVWHGAYNSGLLPQLMAQHSLAMAQNGAVPSEATKRDQNLKRGNWGNQIEFVLTSVGYAVGLGNVWRFPYLCYRNGGGAFMFPYFIMLIFCGIPLFFMELSFGQFASQGCLGVWRISPMFKGVGYGMMVVSTYIGIYYNVVICIAFYYFFSSMTHVLPWAYCNNPWNTHDCAGVLDASNLTNGSRPAALPSNLSHLLNHSLQRTSPSEEYWRLYVLKLSDDIGNFGEVRLPLLGCLGVSWLVVFLCLIRGVKSSGKVVYFTATFPYVVLTILFVRGVTLEGAFDGIMYYLTPQWDKILEAKVWGDAASQIFYSLGCAWGGLITMASYNKFHNNCYRDSVIISITNCATSVYAGFVIFSILGFMANHLGVDVSRVADHGPGLAFVAYPEALTLLPISPLWSLLFFFMLILLGLGTQFCLLETLVTAIVDEVGNEWILQKKTYVTLGVAVAGFLLGIPLTSQAGIYWLLLMDNYAASFSLVVISCIMCVAIMYIYGHRNYFQDIQMMLGFPPPLFFQICWRFVSPAIIFFILVFTVIQYQPITYNHYQYPGWAVAIGFLMALSSVLCIPLYAMFRLCRTDGDTLLQRLKNATKPSRDWGPALLEHRTGRYAPTIAPSPEDGFEVQPLHPDKAQIPIVGSNGSSRLQDSRI [SLC6A9]”, the thermal stability score in the series with HeLa Kyoto [1] (setting [3]) is -0.03; in the series with HeLa Kyoto [1] (cell cycle stage: mitosis), 1.01. In the same order, the values of “MAAQGEPGYLAAQSDPGSNSERSTDSPVPGSEDDLVAGATLHSPEWSEERFRVDRKKLEAMLQAAAEGKGRSGEDFFQKIMEETNTQIAWPSKLKIGAKSKKDPHIKVSGKKEDVKEAKEMIMSVLDTKSNRVTLKMDVSHTEHSHVIGKGGNNIKKVMEETGCHIHFPDSNRNNQAEKSNQVSIAGQPAGVESARVRIRELLPLVLMFELPIAGILQPVPDPNSPSIQHISQTYNISVSFKQRSRMYGATVIVRGSQNNTSAVKEGTAMLLEHLAGSLASAIPVSTQLDIAAQHHLFMMGRNGSNIKHIMQRTGAQIHFPDPSNPQKKSTVYLQGTIESVCLARQYLMGCLPLVLMFDMKEEIEVDPQFIAQLMEQLDVFISIKPKPKQPSKSVIVKSVERNALNMYEARKCLLGLESSGVTIATSPSPASCPAGLACPSLDILASAGLGLTGLGLLGPTTLSLNTSTTPNSLLNALNSSVSPLQSPSSGTPSPTLWAPPLANTSSATGFSAIPHLMIPSTAQATLTNILLSGVPTYGHTAPSPPPGLTPVDVHINSMQTEGKKISAALNGHAQSPDIKYGAISTSSLGEKVLSANHGDPSIQTSGSEQTSPKSSPTEGCNDAFVEVGMPRSPSHSGNAGDLKQMMCPSKVSCAKRQTVELLQGTKNSHLHSTDRLLSDPELSATESPLADKKAPGSERAAERAAAAQQNSERAHLAPRSSYVNMQAFDYEQKKLLATKAMLKKPVVTEVRTPTNTWSGLGFSKSMPAETIKELRRANHVSYKPTMTTTYEGSSMSLSRSNSREHLGGGSESDNWRDRNGIGPGSHSEFAASIGSPKRKQNKSTEHYLSSSNYMDCISSLTGSNGCNLNSSFKGSDLPELFSKLGLGKYTDVFQQQEIDLQTFLTLTDQDLKELGITTFGARRKMLLAISELNKNRRKLFESPNARTSFLEGGASGRLPRQYHSDIASVSGRW [BICC1]” are -0.0285 and 0.296. On the same counts, the results for “MNSGVAMKYGNDSSAELSELHSAALASLKGDIVELNKRLQQTERERDLLEKKLAKAQCEQSHLMREHEDVQERTTLRYEERITELHSVIAELNKKIDRLQGTTIREEDEYSELRSELSQSQHEVNEDSRSMDQDQTSVSIPENQSTMVTADMDNCSDLNSELQRVLTGLENVVCGRKKSSCSLSVAEVDKHIEQLTTASEHCDLAIKTVEEIEGVLGRDLYPNLAEERSRWEKELAGLREENESLTAMLCSKEEELNRTKATMNAIREERDRLRRRVRELQTRLQSVQATGPSSPGRLTSTNRPINPSTGELSTSSSSNDIPIAKIAERVKLSKTRSESSSSDRPVLGSEISSIGVSSSVAEHLAHSLQDCSNIQEIFQTLYSHGSAISESKIREFEVETERLNSRIEHLKSQNDLLTITLEECKSNAERMSMLVGKYESNATALRLALQYSEQCIEAYELLLALAESEQSLILGQFRAAGVGSSPGDQSGDENITQMLKRAHDCRKTAENAAKALLMKLDGSCGGAFAVAGCSVQPWESLSSNSHTSTTSSTASSCDTEFTKEDEQRLKDYIQQLKNDRAAVKLTMLELESIHIDPLSYDVKPRGDSQRLDLENAVLMQELMAMKEEMAELKAQLYLLEKEKKALELKLSTREAQEQAYLVHIEHLKSEVEEQKEQRMRSLSSTSSGSKDKPGKECADAASPALSLAELRTTCSENELAAEFTNAIRREKKLKARVQELVSALERLTKSSEIRHQQSAEFVNDLKRANSNLVAAYEKAKKKHQNKLKKLESQMMAMVERHETQVRMLKQRIALLEEENSRPHTNETSL [MCC]” are 0.157 and -0.438. On the same counts, the results for HRNR are 5.84 and 1.12. In the case of “MAGSDTAPFLSQADDPDDGPVPGTPGLPGSTGNPKSEEPEVPDQEGLQRITGLSPGRSALIVAVLCYINLLNYMDRFTVAGVLPDIEQFFNIGDSSSGLIQTVFISSYMVLAPVFGYLGDRYNRKYLMCGGIAFWSLVTLGSSFIPGEHFWLLLLTRGLVGVGEASYSTIAPTLIADLFVADQRSRMLSIFYFAIPVGSGLGYIAGSKVKDMAGDWHWALRVTPGLGVVAVLLLFLVVREPPRGAVERHSDLPPLNPTSWWADLRALARNPSFVLSSLGFTAVAFVTGSLALWAPAFLLRSRVVLGETPPCLPGDSCSSSDSLIFGLITCLTGVLGVGLGVEISRRLRHSNPRADPLVCATGLLGSAPFLFLSLACARGSIVATYIFIFIGETLLSMNWAIVADILLYVVIPTRRSTAEAFQIVLSHLLGDAGSPYLIGLISDRLRRNWPPSFLSEFRALQFSLMLCAFVGALGGAAFLGTAIFIEADRRRAQLHVQGLLHEAGSTDDRIVVPQRGRSTRVPVASVLI [SPNS1]”, the melting temperature in the series on HeLa Kyoto [2] worked out at 62 °C.
